Article PMC12057046 (2025)

B1: GST-tagged USP8 MIT domain (1-142) [human] / Cadherin-1 863-877 peptide, cellulose-bound (SPOT array) [not stated] (parent complex)
chain 1: MPAVASVPKELYLSSSLKDLNKKTEVKPEKISTKSYVHSALKIFKTAEECRLDRDEERAYVLYMKYVTVYNLIKKRPDFKQQQDYFHSILGPGNIKKAVEEAERLSESLKLRYEEAEVRKKLEEKDRQEEAQRLQQKRQETG
chain 2: NEWGNRFKKLADMYG
B2: GST-tagged USP8 MIT domain (1-142) [human] / DNAJB6 118-130 peptide, cellulose-bound (SPOT array) [not stated] (parent complex)
chain 1: B1 chain 1
chain 2: PFEDFFGNRRGPR
B3: GST-tagged USP8 MIT domain (1-142) [human] / DBP 116-131 peptide, cellulose-bound (SPOT array) [human] (parent complex)
chain 1: B1 chain 1
chain 2: YVDLDAFLLEHGLPPS
B4: GST-tagged USP8 MIT domain (1-142) [human] / Girdin 1192-1207 peptide, cellulose-bound (SPOT array) [human] (parent complex)
chain 1: B1 chain 1
chain 2: EVEHRDLEDRYNQLLK

Variants of: B1
Experiment: SPOT array alanine scanning; read off a plot

Row | screen value [%] | Variant
1 | ~-39 | chain 2 NEWANRFKKLADMYG [chain 2 G4A]
2 | ~-65 | chain 2 NEWGNRFAKLADMYG [chain 2 K8A]
3 | ~-56 | chain 2 NEWGNRFKKLAAMYG [chain 2 D12A]
4 | ~-62 | chain 2 NEWGNRFKKAADMYG [chain 2 L10A]
5 | ~-57 | chain 2 NEWGNRFKKLADMYA [chain 2 G15A]
6 | ~-32 | chain 2 NEWGNRFKKLGDMYG [chain 2 A11G]
7 | ~-22 | chain 2 NEWGNRFKKLADAYG [chain 2 M13A]
8 | ~-98 | chain 2 NEWGNAFKKLADMYG [chain 2 R6A]
9 | ~-57 | chain 2 NAWGNRFKKLADMYG [chain 2 E2A]
10 | ~-34 | chain 2 NEWGARFKKLADMYG [chain 2 N5A]

The next lines start with the variant.

Row | Variant | screen value [%]
11 | chain 2 NEAGNRFKKLADMYG [chain 2 W3A] | ~-100
12 | chain 2 NEWGNRAKKLADMYG [chain 2 F7A] | ~-100
13 | chain 2 AEWGNRFKKLADMYG [chain 2 N1A] | ~-9
14 | chain 2 NEWGNRFKKLADMAG [chain 2 Y14A] | ~-44
15 | chain 2 NEWGNRFKALADMYG [chain 2 K9A] | ~-70

Variants of: B2
Experiment: SPOT array alanine scanning; read off a plot

Row | screen value [%] | Variant
16 | ~20 | chain 2 PFEDFFGNRRGPA [chain 2 R13A]
17 | ~-39 | chain 2 PFEDFFGNRRAPR [chain 2 G11A]
18 | ~-40 | chain 2 PFEDFFANRRGPR [chain 2 G7A]
19 | ~30 | chain 2 AFEDFFGNRRGPR [chain 2 P1A]
20 | ~-19 | chain 2 PFEDFFGNARGPR [chain 2 R9A]
21 | ~-29 | chain 2 PFEDFFGNRAGPR [chain 2 R10A]
22 | ~-88 | chain 2 PFEAFFGNRRGPR [chain 2 D4A]
23 | ~-17 | chain 2 PFEDFFGNRRGAR [chain 2 P12A]
24 | ~-48 | chain 2 PFEDFFGARRGPR [chain 2 N8A]

More lines, now with the values behind:

Row | Variant | screen value [%]
25 | chain 2 PFEDFAGNRRGPR [chain 2 F6A] | ~-67
26 | chain 2 PAEDFFGNRRGPR [chain 2 F2A] | ~10
27 | chain 2 PFEDAFGNRRGPR [chain 2 F5A] | ~-63
28 | chain 2 PFADFFGNRRGPR [chain 2 E3A] | ~-46

Variants of: B3
Experiment: SPOT array alanine scanning; read off a plot

Row | screen value [%] | Variant
29 | ~110 | chain 2 AVDLDAFLLEHGLPPS [chain 2 Y1A]
30 | ~-20 | chain 2 YVDLDAFALEHGLPPS [chain 2 L8A]
31 | ~-100 | chain 2 YVDLAAFLLEHGLPPS [chain 2 D5A]
32 | ~-72 | chain 2 YVDLDAALLEHGLPPS [chain 2 F7A]
33 | ~-84 | chain 2 YVALDAFLLEHGLPPS [chain 2 D3A]
34 | ~98 | chain 2 YVDLDAFLAEHGLPPS [chain 2 L9A]
35 | ~98 | chain 2 YADLDAFLLEHGLPPS [chain 2 V2A]

The remaining lines, values behind:

Row | Variant | screen value [%]
36 | chain 2 YVDADAFLLEHGLPPS [chain 2 L4A] | ~-52
37 | chain 2 YVDLDGFLLEHGLPPS [chain 2 A6G] | ~-38
38 | chain 2 YVDLDAFLLAHGLPPS [chain 2 E10A] | ~-94
39 | chain 2 YVDLDAFLLEHGLPAS [chain 2 P15A] | ~19
40 | chain 2 YVDLDAFLLEAGLPPS [chain 2 H11A] | ~-79
41 | chain 2 YVDLDAFLLEHGLPPA [chain 2 S16A] | ~12

Variants of: B4
Experiment: SPOT array alanine scanning; read off a plot

Row | screen value [%] | Variant
42 | ~-81 | chain 2 EVEHRDLEDRYNQLAK [chain 2 L15A]
43 | ~80 | chain 2 EVAHRDLEDRYNQLLK [chain 2 E3A]
44 | ~-72 | chain 2 EVEHRDLADRYNQLLK [chain 2 E8A]
45 | ~28 | chain 2 EVEHRDLEDRYNALLK [chain 2 Q13A]
46 | ~58 | chain 2 EVEHRDLEARYNQLLK [chain 2 D9A]
47 | ~65 | chain 2 EVEARDLEDRYNQLLK [chain 2 H4A]
48 | ~40 | chain 2 EVEHRALEDRYNQLLK [chain 2 D6A]
49 | ~69 | chain 2 EAEHRDLEDRYNQLLK [chain 2 V2A]

The remaining lines, values behind:

Row | Variant | screen value [%]
50 | chain 2 AVEHRDLEDRYNQLLK [chain 2 E1A] | ~50
51 | chain 2 EVEHRDLEDAYNQLLK [chain 2 R10A] | ~-92
52 | chain 2 EVEHRDLEDRYAQLLK [chain 2 N12A] | ~-37
53 | chain 2 EVEHRDLEDRANQLLK [chain 2 Y11A] | ~-100
54 | chain 2 EVEHRDLEDRYNQLLA [chain 2 K16A] | ~120
55 | chain 2 EVEHRDLEDRYNQALK [chain 2 L14A] | ~-94
56 | chain 2 EVEHRDAEDRYNQLLK [chain 2 L7A] | ~-100
57 | chain 2 EVEHADLEDRYNQLLK [chain 2 R5A] | ~48
